To fix the notation:
B1: adalimumab VH paired with LICHEN-2 light sequence (pairing_CDRs) (antibody, V domains shown)
VH: not shown
VL: DIQMTQSPSFVSASVGDRVTITCRASQGIRNYLAWYQQKPGKAPEVLISAASTLQSGVPSRFSGSGSGTEFTLTITNLQPEDSATYFCQRYNRAPYTFGQGTRLDIK
notes: as the VH of m3 (native VH of adalimumab); Whole antibody; also called LICHEN-2 (adalimumab)
B2: adalimumab VH paired with LICHEN-3 light sequence (pairing_CDRs) (antibody, V domains shown)
VH: not shown
VL: DIVMTQTPPSSPVTLGQPASISCRASQGIRNYLAWYQQKPGQSPKLLISAASTLQSGVPSRFSGSGSGTDFTLKISSLQPEDVATYYCQRYNRAPYTFGQGTKLEIK
notes: as the VH of m3 (native VH of adalimumab); Whole antibody; also called LICHEN-3 (adalimumab)
B3: adalimumab VH paired with LICHEN-5 light sequence (pairing_CDRs) (antibody, V domains shown)
VH: not shown
VL: EIVLTQSPATLSLSPGERATLSCRASQGIRNYLAWYQQKPGQAPRLLIYAASTLQSGIPARFSGSGSGTDFTLTISSLEPEDFAVYYCQRYNRAPYTFGQGTKLEIK
notes: as the VH of m3 (native VH of adalimumab); Whole antibody; also called LICHEN-5 (adalimumab)
B4: adalimumab VH paired with germline IGKV7-3*01/IGKJ1*01 with the adalimumab light CDRs grafted (antibody, V domains shown)
VH: not shown
VL: DIVLTQSPASLAVSPGQRATITCRASQGIRNYLAWYQQKPGQPPKLLIYAASTLQSGVPARFSGSGSGTDFTLTINPVEANDTANYYCQRYNRAPYTFGQGTKVEIK
notes: as the VH of m3 (native VH of adalimumab); germline V-gene IGKV7-3*01 combined with J-gene IGKJ1*01, all three light CDRs of adalimumab (Kabat definition) grafted; Whole antibody; also called Germline-3+ (adalimumab)
B5: pembrolizumab (antibody, V domains shown)
VH: QVQLVQSGVEVKKPGASVKVSCKASGYTFTNYYMYWVRQAPGQGLEWMGGINPSNGGTNFNEKFKNRVTLTTDSSTTTAYMELKSLQFDDTAVYYCARRDYRFDMGFDYWGQGTTVTVSS
VL: EIVLTQSPATLSLSPGERATLSCRASKGVSTSGYSYLHWYQQKPGQAPRLLIYLASYLESGVPARFSGSGSGTDFTLTISSLEPEDFAVYYCQHSRDLPLTFGGGTKVEIK
notes: native VH of the therapeutic pembrolizumab (humanised, IGHV1); Whole antibody (detected by anti-human IgG Fc); also called therapeutic; positive control (pembrolizumab panels)
B6: pembrolizumab VH paired with germline IGKV7-3*01/IGKJ1*01 with the pembrolizumab light CDRs grafted (antibody, V domains shown)
VH: QVQLVQSGVEVKKPGASVKVSCKASGYTFTNYYMYWVRQAPGQGLEWMGGINPSNGGTNFNEKFKNRVTLTTDSSTTTAYMELKSLQFDDTAVYYCARRDYRFDMGFDYWGQGTTVTVSS
VL: DIVLTQSPASLAVSPGQRATITCRASKGVSTSGYSYLHWYQQKPGQPPKLLIYLASYLESGVPARFSGSGSGTDFTLTINPVEANDTANYYCQHSRDLPLTFGQGTKVEIK
notes: as the VH of m13 (native VH of pembrolizumab); germline V-gene IGKV7-3*01 combined with J-gene IGKJ1*01, all three light CDRs of pembrolizumab (Kabat definition) grafted; Whole antibody; also called Germline-3+ (pembrolizumab)
B7: pembrolizumab VH paired with germline IGKV3-20*01/IGKJ1*01 with the pembrolizumab light CDRs grafted (antibody, V domains shown)
VH: QVQLVQSGVEVKKPGASVKVSCKASGYTFTNYYMYWVRQAPGQGLEWMGGINPSNGGTNFNEKFKNRVTLTTDSSTTTAYMELKSLQFDDTAVYYCARRDYRFDMGFDYWGQGTTVTVSS
VL: EIVLTQSPGTLSLSPGERATLSCRASKGVSTSGYSYLHWYQQKPGQAPRLLIYLASYLESGIPDRFSGSGSGTDFTLTISRLEPEDFAVYYCQHSRDLPLTFGQGTKVEIK
notes: as the VH of m13 (native VH of pembrolizumab); germline V-gene IGKV3-20*01 combined with J-gene IGKJ1*01, all three light CDRs of pembrolizumab (Kabat definition) grafted; Whole antibody; also called Germline-1+ (pembrolizumab)
B8: pembrolizumab VH paired with germline IGKV3-11*01/IGKJ1*01 with the pembrolizumab light CDRs grafted (antibody, V domains shown)
VH: QVQLVQSGVEVKKPGASVKVSCKASGYTFTNYYMYWVRQAPGQGLEWMGGINPSNGGTNFNEKFKNRVTLTTDSSTTTAYMELKSLQFDDTAVYYCARRDYRFDMGFDYWGQGTTVTVSS
VL: EIVLTQSPATLSLSPGERATLSCRASKGVSTSGYSYLHWYQQKPGQAPRLLIYLASYLESGIPARFSGSGSGTDFTLTISSLEPEDFAVYYCQHSRDLPLTFGQGTKVEIK
notes: as the VH of m13 (native VH of pembrolizumab); germline V-gene IGKV3-11*01 combined with J-gene IGKJ1*01, all three light CDRs of pembrolizumab (Kabat definition) grafted; Whole antibody; also called Germline-2+ (pembrolizumab)

T2 sequence (Q15116 25-170): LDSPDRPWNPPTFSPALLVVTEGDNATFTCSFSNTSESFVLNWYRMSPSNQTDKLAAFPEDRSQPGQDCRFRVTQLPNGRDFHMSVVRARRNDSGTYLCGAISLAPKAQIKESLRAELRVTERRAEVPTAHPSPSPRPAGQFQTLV

The first assay deals with T1, TNF-α (Homo sapiens, UniProt P01375, biotinylated (said of the BLI experiment)).
T1 construct: TNF-α, a pro-inflammatory cytokine, target of adalimumab; also called Purified TNF-α; biotinylated TNF-α; source: bought: Acro Biosciences (Cat #TNA-H82E3, Lot #BV2043-241DF11R8)
T1 sequence (P01375 77-233): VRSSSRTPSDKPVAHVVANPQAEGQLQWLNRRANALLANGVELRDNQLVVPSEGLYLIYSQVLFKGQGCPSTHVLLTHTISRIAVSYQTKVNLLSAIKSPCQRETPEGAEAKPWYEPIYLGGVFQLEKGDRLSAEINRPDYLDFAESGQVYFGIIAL
Briefly: ELISA; screening ELISA; antigen coated at 1 µg/mL (30 ng/well) in bicarbonate coating buffer on 384-well MaxiSorp overnight at 4°C; blocked with 4% milk in PBS; antibody at 1 µg/mL in PBS, 2 h at room temperature; goat anti-human IgG Fc-HRP, TMB, absorbance at 450 nm. The settings on record: both partners purified.
In the case of B1, the binding result is “binds”.
Still for that read-out and setting: with B2 the entry was “binds”.
Still for that read-out and setting: with B3 the entry was “binds”; with B4, “binds”.

A further assay addresses T2, Human PD-1 (human, UniProt Q15116).
T2 construct: programmed death receptor 1 (PD-1), human, target of pembrolizumab; The printed catalogue number is that of the TNF-α product, probably a slip; also called programmed death receptor 1; Target (pembrolizumab panels); source: bought: Acro Biosciences (printed Cat #TNA-H82E3, Lot #BV2043-241DF1-1R8)
The description is as above. Particulars: both partners purified.
Regarding B5, the binding result was “binds”.
Same read-out and setting: with B6 the entry was “binds”.
Same read-out and setting: to B7 belongs “binds”; to B8, “binds”.

Values taken from publication doi:10.1101/2025.08.06.668938 (bioRxiv, 2025).
